One data set deals with OCT4 (Homo sapiens). The conditions noted are these: ChIP-qPCR, human HUES-6 ESCs.
Another data set concerns SOX2 (Homo sapiens). Conditions: ChIP-qPCR, human HUES-6 ESCs.
For data set [1], the target named is Oct4 (Pou5f1) (Mus musculus) (UniProt P20263). The conditions noted are these: ChIP-qPCR, undifferentiated mouse ESCs; 10-fold maximum after 3 days RA, none at 6 days.
Another data set concerns the target Sox2 (Mus musculus) (UniProt P48432). The conditions noted are these: ChIP-qPCR, undifferentiated mouse ESCs; 10-fold maximum after 3 days RA, none at 6 days.

Oct4 (Pou5f1) (Mus musculus), sequence (P20263 whole entry): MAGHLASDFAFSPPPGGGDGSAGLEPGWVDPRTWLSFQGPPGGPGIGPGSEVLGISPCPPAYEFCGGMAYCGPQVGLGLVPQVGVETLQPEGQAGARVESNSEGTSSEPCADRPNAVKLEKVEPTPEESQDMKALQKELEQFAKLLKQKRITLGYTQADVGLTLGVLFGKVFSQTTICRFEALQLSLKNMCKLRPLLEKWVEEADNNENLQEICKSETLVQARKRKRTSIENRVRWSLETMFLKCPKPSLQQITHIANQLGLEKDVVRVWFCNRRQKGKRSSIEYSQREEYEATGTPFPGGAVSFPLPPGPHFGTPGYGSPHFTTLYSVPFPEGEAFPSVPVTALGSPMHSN
Sox2 (Mus musculus), sequence (P48432 whole entry): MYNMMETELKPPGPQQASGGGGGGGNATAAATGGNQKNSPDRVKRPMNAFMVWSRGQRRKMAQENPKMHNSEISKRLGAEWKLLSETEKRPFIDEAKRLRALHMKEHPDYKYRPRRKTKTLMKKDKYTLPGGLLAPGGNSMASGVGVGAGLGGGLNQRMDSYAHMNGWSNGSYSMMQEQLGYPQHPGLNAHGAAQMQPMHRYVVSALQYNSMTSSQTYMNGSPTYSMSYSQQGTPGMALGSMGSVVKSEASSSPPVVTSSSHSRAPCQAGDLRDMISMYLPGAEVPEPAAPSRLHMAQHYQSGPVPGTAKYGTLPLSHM

With human NANOG promoter sox-oct region, the binding signal (fold enrichment) in the data set on OCT4 (Homo sapiens) and in the data set with SOX2 (Homo sapiens) was 6 throughout.

As for “mouse Nanog promoter oct-sox region (ChIP amplicon 2)”, the results for the binding signal (fold enrichment) (in data set [1]; in the data set with Sox2 (Mus musculus)) were below 43 and below 37, respectively.

The values above are taken from patent publication US20090018059.
